Consider 47 substances from patent US11872270B2, “A*03 restricted peptides for use in immunotherapy against cancers and related methods” (Immatics Biotechnologies GmbH, priority 2018, dated 2024).

In the first assay the target is HLA-A*03:01 (Homo sapiens, UniProt P04439). As to the kind of experiment: MHC binding assay (UV-ligand exchange, β2m ELISA).
Settings: not given
The source says: Candidate peptides for T cell based therapies according to the present invention were further tested for their MHC binding capacity (affinity). The individual peptide-MHC complexes were produced by UV-ligand exchange, where a UV-sensitive peptide is cleaved upon UV-irradiation and exchanged with the peptide of interest as analyzed. Only peptide candidates that can effectively bind and stabilize the peptide-receptive MHC molecules prevent dissociation of the MHC complexes. To determine the yield of the exchange reaction, an ELISA was performed based on the detection of the light chain (β2m) of stabilized MHC complexes. The assay was performed as generally described in Rodenko et al. (Rodenko et al., 2006) 96 well MAXISorp plates (NUNC) were coated over night with 2 ug/ml streptavidin in PBS at room temperature, washed 4× and blocked for 1 h at 37° C. in 2% BSA containing blocking buffer. Refolded HLA-A*02:01/MLA-001 monomers served as standards, covering the range of 15-500 ng/ml. Peptide-MHC monomers of the UV-exchange reaction were diluted 100-fold in blocking buffer. Samples were incubated for 1 h at 37° C., washed four times, incubated with 2 ug/ml HRP conjugated anti-β2m for 1 h at 37° C., washed again and detected with TMB solution that is stopped with […]. Absorption was measured at 450 nm. Candidate peptides that show a high exchange yield (preferably higher than 50%, most preferred higher than 75%) are generally preferred for a generation and production of antibodies or fragments thereof, and/or T cell receptors or fragments thereof, as they show sufficient avidity to the MHC molecules and prevent dissociation of the MHC complexes.
(In general: In an ELISA, binding on a coated surface is turned into a signal by an enzyme label.)
On to “RLPLRVVKH (listed as Homo sapiens) [SEQ ID NO: 271]”, for which the “binding to HLA-A*03” value is “binds to HLA-A*03”.

Still in this assay, the particulars now being: binding to HLA-A*03:01, UV-ligand exchange, β2m ELISA.
Consider “22 (EGLFLLGCVK; listed as Homo sapiens) [compound 22]”, for which the “Peptide exchange (MHC class I binding score, peptide exchange yield)” value (from here on “Peptide exchange”) is on record as “+++ (>50 = +++)”. Regarding “208 (KTGWFTLLY; listed as Homo sapiens) [compound 208]”, the “Peptide exchange” value was “++++ (>75% = ++++)”.

“272 (AVCGGVLVH; listed as Homo sapiens) [compound 272]”: the “Peptide exchange” value is listed as “++++ (>75% = ++++)”. The same measure, in the same setting: the value for “190 (RSKWSNVFK; listed as Homo sapiens) [compound 190]” was “++++ (>75% = ++++)”; that for “30 (ILDSSLLK; listed as Homo sapiens) [compound 30]” was “++ (>20% = ++)”. Regarding “65 (RTIEELQNK; listed as Homo sapiens) [compound 65]”, the “Peptide exchange” value is on record as “+++ (>50 = +++)”. In the case of “112 (ASLAAAVLAK; listed as Homo sapiens) [compound 112]”, the “Peptide exchange” value was “+++ (>50 = +++)”. “254 (SVLDKLLFH; listed as Homo sapiens) [compound 254]”: the “Peptide exchange” value was “++++ (>75% = ++++)”. Regarding “25 (KTWAHCMSY; listed as Homo sapiens) [compound 25]”, the “Peptide exchange” value is given as “++++ (>75% = ++++)”. In the case of “271 (RLPLRVVKH; listed as Homo sapiens) [compound 271]”, the “Peptide exchange” value is given as “++++ (>75% = ++++)”. Still for that read-out and setting: under “165 (AATIISSAK; listed as Homo sapiens) [compound 165]” stands “+ (>10% = +)”; under “79 (AVAAVLLSR; listed as Homo sapiens) [compound 79]”, “+++ (>50 = +++)”; under “188 (SSLPRAFQK; listed as Homo sapiens) [compound 188]”, “++ (>20% = ++)”. For the substance “31 (HAFFPKTHR; listed as Homo sapiens) [compound 31]”, the “Peptide exchange” value is “++++ (>75% = ++++)”. Same read-out and setting: the value for “41 (RLGAARGQLR; listed as Homo sapiens) [compound 41]” was “++ (>20% = ++)”. Take “101 (HMDEFKRTQK; listed as Homo sapiens) [compound 101]”: the “Peptide exchange” value is “+++ (>50 = +++)”.

With “144 (PLAMLAATCNK; listed as Homo sapiens) [compound 144]”, the “Peptide exchange” value is listed as “++ (>20% = ++)”. As for “9 (HVLYPVPLESY; listed as Homo sapiens) [compound 9]”, the “Peptide exchange” value is “+++ (>50 = +++)”. As for “39 (KTQFPQLK; listed as Homo sapiens) [compound 39]”, the “Peptide exchange” value was “++ (>20% = ++)”. Consider “209 (KILDRVLSRY; listed as Homo sapiens) [compound 209]”, for which the “Peptide exchange” value is on record as “++++ (>75% = ++++)”. As for “178 (RIYVYVKRK; listed as Homo sapiens) [compound 178]”, the “Peptide exchange” value is “+++ (>50 = +++)”.

Take “40 (ALNDRFAGY; listed as Homo sapiens) [compound 40]”: the “Peptide exchange” value is recorded as “+++ (>50 = +++)”. For the substance “252 (AVYNYPEGAAY; listed as Homo sapiens) [compound 252]”, the “Peptide exchange” value is “++++ (>75% = ++++)”. As to “63 (SSFRPLLSK; listed as Homo sapiens) [compound 63]”, the “Peptide exchange” value is on record as “++++ (>75% = ++++)”. In the case of “60 (VVFPFPVNKR; listed as Homo sapiens) [compound 60]”, the “Peptide exchange” value was “+++ (>50 = +++)”. As to “204 (VAFIPLSNK; listed as Homo sapiens) [compound 204]”, the “Peptide exchange” value is on record as “++++ (>75% = ++++)”. Same read-out and setting: under “218 (KAFNQSSIFTK; listed as Homo sapiens) [compound 218]” stands “+++ (>50 = +++)”; under “154 (TIASVLVAR; listed as Homo sapiens) [compound 154]”, “++ (>20% = ++)”; under “27 (SGSTLECILYK; listed as Homo sapiens) [compound 27]”, “++++ (>75% = ++++)”. Turning to “199 (IVFPDVISK; listed as Homo sapiens) [compound 199]”, the “Peptide exchange” value is “++++ (>75% = ++++)”. On the same count and under the same terms, under “87 (RLASVGLDAK; listed as Homo sapiens) [compound 87]” stands “++++ (>75% = ++++)”; under “224 (SLYDGFLSY; listed as Homo sapiens) [compound 224]”, “++++ (>75% = ++++)”; under “175 (VIGTTSSPK; listed as Homo sapiens) [compound 175]”, “+++ (>50 = +++)”. “213 (KLYPTHACR; listed as Homo sapiens) [compound 213]”: the “Peptide exchange” value is “++++ (>75% = ++++)”. As to “211 (VSLGTPIMK; listed as Homo sapiens) [compound 211]”, the “Peptide exchange” value is “+++ (>50 = +++)”. On to “146 (TLLSYELAFK; listed as Homo sapiens) [compound 146]”, for which the “Peptide exchange” value is listed as “++++ (>75% = ++++)”. Turning to “66 (RVKEIVINK; listed as Homo sapiens) [compound 66]”, the “Peptide exchange” value is on record as “+++ (>50 = +++)”.

With “106 (LLRSGLTLR; listed as Homo sapiens) [compound 106]”, the “Peptide exchange” value was “++ (>20% = ++)”. On the same count and under the same terms, the value for “261 (AVAQKLLSH; listed as Homo sapiens) [compound 261]” was “++++ (>75% = ++++)”; that for “124 (VVYDTMIEK; listed as Homo sapiens) [compound 124]” was “+++ (>50 = +++)”; that for “215 (KIWQNLRLK; listed as Homo sapiens) [compound 215]” was “+++ (>50 = +++)”. As for “222 (RSNPYFQNK; listed as Homo sapiens) [compound 222]”, the “Peptide exchange” value is given as “++++ (>75% = ++++)”.

As for “14 (VAFFVLPSK; listed as Homo sapiens) [compound 14]”, the “Peptide exchange” value is listed as “++ (>20% = ++)”.

Take “147 (KLFMPRPK; listed as Homo sapiens) [compound 147]”: the “Peptide exchange” value was “+++ (>50 = +++)”. Take “7 (RLVELAGQSLLK; listed as Homo sapiens) [compound 7]”: the “Peptide exchange” value is on record as “++++ (>75% = ++++)”. For the substance “111 (ATSPPASVR; listed as Homo sapiens) [compound 111]”, the “Peptide exchange” value is reported as “++++ (>75% = ++++)”.
